From paper PMC7898468, “TrkA-mediated endocytosis of p75-CTF prevents cholinergic neuron death upon γ-secretase inhibition” (Life Science Alliance, 2021)
One block for each molecule: values may come before it.

Legend:
[1] = biological target: endogenous p75-CTF of mouse dorsal root ganglia neurons (mouse (endogenous in dorsal root ganglia)); assay: non-reducing SDS-PAGE and Western blot; lysate of dorsal root ganglia from P2 mice, 24 h at 37 C with or without compound E (10 uM)
[2] = biological target: HA-p75-CTF (truncated p75NTR construct that mimics the endogenously generated C-terminal fragment), wild type (UniProt P07174); assay: non-reducing SDS-PAGE and Western blot; total membranes (and lysates) of HeLa cells transfected with p75-CTF constructs, 16 h with or without 10 uM compound E; sample buffer with 1% beta-mercaptoethanol keeps the C257 disulfide dimers; anti-p75NTR blot; shows only SDS-resistant disulfide dimers
[3] = biological target: the molecule itself; assay: SDS-PAGE and Western blot with or without DTT; purified C101-p75-3xFLAG substrates, with or without DTT (20 mM), anti-FLAG blot

stoichiometry N [1]: 2
Molecule: endogenous p75-CTF of mouse dorsal root ganglia neurons (domain or fragment)

stoichiometry N [2]: 2
Molecule: HA-p75-CTF (truncated p75NTR construct that mimics the endogenously generated C-terminal fragment), wild type (from UniProt P07174 245-425) (domain or fragment)

B1: C101-p75-wt-3xFlag (domain or fragment, rat)
chain: MVTTVMGSSQPVVTRGTTDNLIPVYCSILAAVVVGLVAYIAFKRWNSCKQNKQGANSRPVNQTPPPEGEKLHSDSGISVDSQSLHDQQTHTQTASGQALKG
notes: rat p75NTR, transmembrane domain and juxtamembrane region; Forms DTT-sensitive disulfide dimers; also called p75-C101-wt; C101-wt; source: COS1, transiently transfected, purified (anti-FLAG M2 agarose); not shown: 3xFLAG, C-terminal, kept
stoichiometry N [3]: 2
